Earlier results, collected in article PMC10860761.

What was measured:
actin monomer (ADP) = actin monomer (ADP) (UniProt P60010)
actin monomer (ATP) = actin monomer (ATP) (UniProt P60010)

Sequence of Srv2/CAP WH2 (P17555 287-336): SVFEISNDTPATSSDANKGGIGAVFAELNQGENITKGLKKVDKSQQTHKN
Sequence of Srv2/CAP CARP (P17555 369-526): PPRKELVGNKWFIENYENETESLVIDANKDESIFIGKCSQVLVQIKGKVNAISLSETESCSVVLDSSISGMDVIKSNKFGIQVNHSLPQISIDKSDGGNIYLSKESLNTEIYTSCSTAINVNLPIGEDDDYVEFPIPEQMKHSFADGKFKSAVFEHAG

| Kd (actin monomer (ADP)) | Kd (actin monomer (ATP)) | Substance |
| --- | --- | --- |
| 1500 nM |  | Srv2/CAP CARP (from UniProt P17555) |
|  | 1000 nM | Srv2/CAP WH2 (from UniProt P17555) |
